# Measured values published in IntAct's records for PubMed 29892012.
# B1: E3 ubiquitin-protein ligase LNX (Homo sapiens), Q8TBB1 (parent)
# chain: MNQPESANDPEPLCAVCGQAHSLEENHFYSYPEEVDDDLICHICLQALLDPLDTPCGHTYCTLCLTNFLVEKDFCPMDRKPLVLQHCKKSSILVNKLLNKLLVTCPFREHCTQVLQRCDLEHHFQTSCKGASHYGLTKDRKRRSQDGCPDGCASLTATAPSPEVSAAATISLMTDEPGLDNPAYVSSAEDGQPAISPVDSGRSNRTRARPFERSTIRSRSFKKINRALSVLRRTKSGSAVANHADQGRENSENTTAPEVFPRLYHLIPDGEITSIKINRVDPSESLSIRLVGGSETPLVHIIIQHIYRDGVIARDGRLLPGDIILKVNGMDISNVPHNYAVRLLRQPCQVLWLTVMREQKFRSRNNGQAPDAYRPRDDSFHVILNKSSPEEQLGIKLVRKVDEPGVFIFNVLDGGVAYRHGQLEENDRVLAINGHDLRYGSPESAAHLIQASERRVHLVVSRQVRQRSPDIFQEAGWNSNGSWSPGPGERSNTPKPLHPTITCHEKVVNIQKDPGESLGMTVAGGASHREWDLPIYVISVEPGGVISRDGRIKTGDILLNVDGVELTEVSRSEAVALLKRTSSSIVLKALEVKEYEPQEDCSSPAALDSNHNMAPPSDWSPSWVMWLELPRCLYNCKDIVLRRNTAGSLGFCIVGGYEEYNGNKPFFIKSIVEGTPAYNDGRIRCGDILLAVNGRSTSGMIHACLARLLKELKGRITLTIVSWPGTFL
# partner: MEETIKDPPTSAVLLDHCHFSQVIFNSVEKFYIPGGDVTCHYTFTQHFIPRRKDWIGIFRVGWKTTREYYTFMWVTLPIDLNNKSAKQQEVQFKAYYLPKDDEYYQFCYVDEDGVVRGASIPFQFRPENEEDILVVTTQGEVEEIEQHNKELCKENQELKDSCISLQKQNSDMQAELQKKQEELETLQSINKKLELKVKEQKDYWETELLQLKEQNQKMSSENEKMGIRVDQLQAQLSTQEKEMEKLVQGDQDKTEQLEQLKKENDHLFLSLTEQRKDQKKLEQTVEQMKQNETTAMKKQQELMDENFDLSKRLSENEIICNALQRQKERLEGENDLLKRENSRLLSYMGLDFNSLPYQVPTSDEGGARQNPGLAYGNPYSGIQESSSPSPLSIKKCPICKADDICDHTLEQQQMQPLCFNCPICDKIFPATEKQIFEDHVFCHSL
# B2: Tumor suppressor candidate 2 (Homo sapiens), O75896 (parent)
# chain: MGASGSKARGLWPFASAAGGGGSEAAGAEQALVRPRGRAVPPFVFTRRGSMFYDEDGDLAHEFYEETIVTKNGQKRAKLRRVHKNLIPQGIVKLDHPRIHVDFPVILYEV
# B3: Zinc finger protein ZXDC (Homo sapiens), Q2QGD7 (parent)
# chain: MDLPALLPAPTARGGQHGGGPGPLRRAPAPLGASPARRRLLLVRGPEDGGPGARPGEASGPSPPPAEDDSDGDSFLVLLEVPHGGAAAEAAGSQEAEPGSRVNLASRPEQGPSGPAAPPGPGVAPAGAVTISSQDLLVRLDRGVLALSAPPGPATAGAAAPRRAPQASGPSTPGYRCPEPQCALAFAKKHQLKVHLLTHGGGQGRRPFKCPLEGCGWAFTTSYKLKRHLQSHDKLRPFGCPVGGCGKKFTTVYNLKAHMKGHEQESLFKCEVCAERFPTHAKLSSHQRSHFEPERPYKCDFPGCEKTFITVSALFSHNRAHFREQELFSCSFPGCSKQYDKACRLKIHLRSHTGERPFICDSDSCGWTFTSMSKLLRHRRKHDDDRRFTCPVEGCGKSFTRAEHLKGHSITHLGTKPFECPVEGCCARFSARSSLYIHSKKHVQDVGAPKSRCPVSTCNRLFTSKHSMKAHMVRQHSRRQDLLPQLEAPSSLTPSSELSSPGQSELTNMDLAALFSDTPANASGSAGGSDEALNSGILTIDVTSVSSSLGGNLPANNSSLGPMEPLVLVAHSDIPPSLDSPLVLGTAATVLQQGSFSVDDVQTVSAGALGCLVALPMKNLSDDPLALTSNSNLAAHITTPTSSSTPRENASVPELLAPIKVEPDSPSRPGAVGQQEGSHGLPQSTLPSPAEQHGAQDTELSAGTGNFYLESGGSARTDYRAIQLAKEKKQRGAGSNAGASQSTQRKIKEGKMSPPHFHASQNSWLCGSLVVPSGGRPGPAPAAGVQCGAQGVQVQLVQDDPSGEGVLPSARGPATFLPFLTVDLPVYVLQEVLPSSGGPAGPEATQFPGSTINLQDLQ
# partner: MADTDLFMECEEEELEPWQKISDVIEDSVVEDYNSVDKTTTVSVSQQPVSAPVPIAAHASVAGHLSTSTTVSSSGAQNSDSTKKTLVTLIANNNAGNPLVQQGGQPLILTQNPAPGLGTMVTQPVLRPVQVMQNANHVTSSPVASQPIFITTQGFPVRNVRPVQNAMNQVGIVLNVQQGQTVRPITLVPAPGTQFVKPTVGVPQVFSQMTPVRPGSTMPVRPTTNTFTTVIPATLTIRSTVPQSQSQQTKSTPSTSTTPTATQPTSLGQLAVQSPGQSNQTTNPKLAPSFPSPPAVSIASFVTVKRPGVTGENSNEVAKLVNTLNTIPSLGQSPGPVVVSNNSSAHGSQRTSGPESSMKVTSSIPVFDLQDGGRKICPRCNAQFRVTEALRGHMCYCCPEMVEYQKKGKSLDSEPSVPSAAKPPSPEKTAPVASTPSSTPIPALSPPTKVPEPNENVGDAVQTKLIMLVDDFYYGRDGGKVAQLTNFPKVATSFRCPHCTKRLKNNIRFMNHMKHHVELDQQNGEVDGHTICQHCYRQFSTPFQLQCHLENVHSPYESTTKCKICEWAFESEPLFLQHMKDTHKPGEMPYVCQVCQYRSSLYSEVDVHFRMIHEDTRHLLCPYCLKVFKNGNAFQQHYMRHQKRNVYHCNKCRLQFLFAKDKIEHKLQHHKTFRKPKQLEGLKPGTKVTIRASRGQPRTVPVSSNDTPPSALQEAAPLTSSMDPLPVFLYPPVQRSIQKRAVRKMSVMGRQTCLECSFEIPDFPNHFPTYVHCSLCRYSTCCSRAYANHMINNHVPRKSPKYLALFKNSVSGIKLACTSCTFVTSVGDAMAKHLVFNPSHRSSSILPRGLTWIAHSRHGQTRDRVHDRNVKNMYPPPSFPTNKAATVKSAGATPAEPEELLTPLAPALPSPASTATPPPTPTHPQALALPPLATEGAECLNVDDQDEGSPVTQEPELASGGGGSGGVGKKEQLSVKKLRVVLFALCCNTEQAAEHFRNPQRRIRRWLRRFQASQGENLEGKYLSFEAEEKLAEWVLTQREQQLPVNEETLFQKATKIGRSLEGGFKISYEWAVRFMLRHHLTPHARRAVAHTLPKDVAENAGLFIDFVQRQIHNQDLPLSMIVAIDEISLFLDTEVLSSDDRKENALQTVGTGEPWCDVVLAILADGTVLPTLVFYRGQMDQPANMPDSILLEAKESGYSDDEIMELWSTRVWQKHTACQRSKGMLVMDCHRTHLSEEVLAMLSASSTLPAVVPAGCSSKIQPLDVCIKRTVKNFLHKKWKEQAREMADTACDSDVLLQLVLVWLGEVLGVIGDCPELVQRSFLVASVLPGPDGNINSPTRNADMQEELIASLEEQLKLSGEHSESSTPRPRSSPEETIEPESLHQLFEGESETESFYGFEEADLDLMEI
# B4: E3 ubiquitin-protein ligase LNX (Homo sapiens), Q8TBB1 (parent)
# chain: B1 chain
# partner: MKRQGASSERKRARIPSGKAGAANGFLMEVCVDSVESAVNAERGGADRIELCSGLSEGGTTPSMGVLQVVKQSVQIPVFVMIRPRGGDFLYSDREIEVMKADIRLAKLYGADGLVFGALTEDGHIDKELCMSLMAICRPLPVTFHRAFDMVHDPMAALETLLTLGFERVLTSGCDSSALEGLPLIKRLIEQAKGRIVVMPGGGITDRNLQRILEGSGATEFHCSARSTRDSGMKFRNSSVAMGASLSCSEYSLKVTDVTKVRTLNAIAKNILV
# Variants of: B1
# Details: with caco2_human CALCOCO2, Q13137
row,effect of a mutation on the interaction,Variant
1,disrupting interaction strength,E295K

# Variants of: B2
# Details: with rbpms_human RBPMS
row,effect of a mutation on the interaction,Variant
1,with no effect,R76Q

# Variants of: B2
# Details: with mdfi_human MDFI
row,effect of a mutation on the interaction,Variant
1,disrupting interaction strength,R76Q

# Variants of: B3
# Details: with pogz_human POGZ
row,effect of a mutation on the interaction,Variant
1,with no effect,T589M

# Variants of: B4
# Details: with cutc_human CUTC
row,effect of a mutation on the interaction,Variant
1,disrupting interaction strength,E295K
